The record followed here is US20240043568A1 (KEYMED BIOSCIENCES, published 2024).

Assay [1] addresses T1, recombinant human GPC3 protein (human, UniProt P51654 25-563).
T1 construct: also called human GPC3 full-length protein; recombinant GPC3 protein
The assay can be described thus: BLI (Octet), antibody on Protein A probe. On the procedure:
Using BLI technology (Octet), the antibody to be tested was captured on the Protein A probe. The binding capacity with human GPC3 protein (10 μg/ml as the initial concentration, 2-fold gradient, a total of 5 concentration points) was detected. The affinity constant KD was obtained according to the association and dissociation rates.

For another assay, the target named is T2, human GPC3 on cells (human, UniProt P51654 25-563).
T2 construct: whole, on cells; One molecule is used for both CHO-hGPC3 transfectants and GPC3+ HepG2 cells; The assay field names the cell; also called CHO-hGPC3 (clone 2B10); CHO-human GPC3
Nature of the assay: flow cytometry, CHO-human GPC3 cells. As to the method: The binding of the antibodies to human GPC3 stably-transfected cells was detected by FACS. CHO-human GPC3 stably-transfected cells prepared in Example 1 in the logarithmic growth phase were adjusted to 5×10⁵ cells/ml with 4% calf serum (Hyclone, SH30626.06). 100 μl/well of cell suspension was added to a 96-well U-plate, and centrifuged at 300 g for 5 min. The supernatant was discarded. 100 μL of gradient diluted antibodies (initial concentration 200 nM, 3-fold dilution, 12 gradients) was added to each well and incubated at 4° C. for 45 min. The secondary antibody Alexa Fluro647 labeled goat anti-human IgG Fc (1:300 dilution) was added at 50 μL/well, incubated on ice for 45 minutes, and detected by flow cytometry.

B1: 5D6 (antibody, V domains shown)
VH: QVQLQQSGAELVRPGASVKLSCKALGYTFADYEIHWVKQTPVHGLEWIGAIHPGSGGTAYNQTFEGKATLTADKSSTTAYMELSSLTSEDSAVYYCTRYYSFAYWGQGTLVTVSA
VL: DVLMTQTPLSLPVSLGDQASISCRSSQSLVHSNGNTYLHWYLQKPGQSPKLLIYKVSNRFSGVPDRFSGSGSGTDFTLKISRVEAEDLGVYFCSQSTHVPLTFGAGTKLELK
notes: Chimeric IgG: murine variable regions on human IgG1 CH1-CH3 and an antibody light chain constant region
B1: in assay [1], the dissociation constant (Kd) is 27.7 nM, the koff was determined as 0.00292 s⁻¹ and the on-rate (kon) worked out at 105000 M⁻¹ s⁻¹. The molecule also registered an EC50 with human GPC3 on cells of 3.73 nM.

B2: 46C3 (antibody, V domains shown)
VH: QVQLQQSGPELVKPGASVKISCKASGYTFTDYYINWVKQKPGQGLEWIGWIYPGSGNTKYNEKFKGKATLTVDTSSSTAYMQLSSLTSEDTAVYFCARGRWGQGTLVTVSA
VL: DVVMTQTPLSLPVSLRDQASISCRSSQSLVHSNGNTYLHWYLQKPGQSPKLLIYKVSNRFSGVPDRFSGSGSGTDFTLKISRVEAEDLGVYFCSQSTHVPRTFGGGTKLELK
notes: Chimeric human IgG1
Regarding B2, in assay [1], the Kd came to 24.3 nM, the koff is 0.00154 s⁻¹ and the kon turned out to be 63600 M⁻¹ s⁻¹. The same molecule came in with an EC50 with human GPC3 on cells of 0.46 nM.

B3: 19F1 (antibody, V domains shown)
VH: QVQLQQSGAELVRPGASVKLSCKALGYTFADYEIHWVKQTPVHGLEWIGAIHPGSGGTAYNQTFEGKATLTADKSSTTAYMELSSLTSEDSAVYYCTRYYSFAYWGQGTLVTVSA
VL: DVLMTQTPLSLPVSLGDQASISCRSSQSLVHSNGNTYLHWYLQKPGQSPKLLIYKVSNRFSGVPDRFSGSGSGTDFTLKISRVEAEDLGVYFCSQSTHIPTFGGGTKLELK
notes: Chimeric human IgG1
For B3, in assay [1], the Kd turned out to be 18.3 nM, the koff turned out to be 0.00213 s⁻¹ and the kon was found to be 116000 M⁻¹ s⁻¹. This molecule also came in with an EC50 with human GPC3 on cells of 3.59 nM.

B4: 47B6 (antibody, V domains shown)
VH: QVQLQQSGAELMKPGASVKISCKATGYTFSSYWIEWVKQRPGHGLEWIGEILPGSGSTNYNEKFKGKATFTADTSSNTAYMQLSSLTSEDSAVYYCARGYWGQGTLVTVSA
VL: DIVMTQAPLSLPVSLGDQASISCRSSQSLVHSNGNTYLHWYLQKPGQSPKLLIYKVSNRFSGVPDRFSGSGSGTDFTLKISRVEAEDLGVYFCSQSTHVPRTFGGGTKLEIK
notes: Chimeric human IgG1
With B4, in assay [1], the Kd was found to be 48.2 nM, the koff was 0.00149 s⁻¹ and the association rate constant (kon) came out at 30800 M⁻¹ s⁻¹. Also, in the assay with human GPC3 on cells, the response was half-maximal at 0.38 nM (EC50).

B5: 41F1 (antibody, V domains shown)
VH: QVQLQQSGAELVRPGASVKLSCKALGYTFADYEIHWVKQTPVHGLEWIGAIHPGSGGTAYNQTFEGKATLTADKSSTTAYMELSSLTSEDSAVYYCTRYYSFAYWGQGTLVTVSA
VL: DVLMTQTPLSLPVSLGDQASISCRSSQSLVHSNGNTYLHWYLQKPGQSPKLLIYKVSNRFSGVPDRFSGSGSGTDFTLKISRVEAEDLGVYFCSQNTHVPLTFGAGTKLELK
notes: Chimeric human IgG1
Consider B5, for which, in assay [1], the Kd amounted to 18.5 nM, the koff came out at 0.00181 s⁻¹ and the kon stood at 97900 M⁻¹ s⁻¹. Also, in the assay with human GPC3 on cells, the EC50 turned out to be 0.91 nM.

B6: 38D2 (antibody, V domains shown)
VH: QVQLQQSGAELVRPGASVKLSCKALGYTFADYEIHWVKQTPVHGLEWIGAIHPGSGGTAYNQTFEGKATLTADKSSTTAYMELSSLTSEDSAVYYCTRYYSFAYWGQGTLVTVSA
VL: DVVMTQTPLSLPVSLGDQASISCRSSQSLENSNGNTYLNWYLQKPGQSPQLLIYRVSNRFSGVLDRFSGSGSGTDFTLKISRVEAEDLGVYFCLQVTHVPYTFGGGTKLEIK
notes: Chimeric human IgG1
With B6, in assay [1], the Kd was 11.3 nM, the koff worked out at 0.000832 s⁻¹ and the on-rate (kon) was 73400 M⁻¹ s⁻¹. Moreover, the EC50 with human GPC3 on cells stood at 3.35 nM.

B7: 42A1 (antibody, V domains shown)
VH: QVQLQQSGAELVRPGASVKLSCKALGYTFADYEIHWVKQTPVHGLEWIGAIHPGSGGTAYSQTFKGKATLTADKSSTTAYMELSSLTSEDSAVYYCTRYFSFAYWGQGTLVTVSA
VL: DVVVTQTPLSLPVSLGDQASISCRSSQSLVHSNGNTYLHWYLQKPGQSPKLLIYKVSNRFSGVPDRFSGSGSGTDFTLKISRVEAEDLGVYFCSQSTHAPYTFGGGTRLEIK
notes: Chimeric human IgG1
With B7, in assay [1], the equilibrium dissociation constant (Kd) turned out to be 40.5 nM, the koff is 0.00243 s⁻¹ and the on-rate constant (kon) was found to be 60000 M⁻¹ s⁻¹. In the assay with human GPC3 on cells, the midpoint of the response, the EC50, lay at 6.69 nM.

B8: 30A4 (antibody, V domains shown)
VH: QVQLQQSGAELVRPGASVKLSCKALGYAFADYEIHWVKQTPVHGLEWIGAIHPGSGGTAYNQTFKGKATLTADKSSTTAYMELSSLTSEDSAVYYCTRYYSFAYWGQGTLVTVSA
VL: DVVMTQTPLSLPVSLGDQASISCRSSQSLVHSNGNTYLHWYLQKPGQSPKLLIYKVSNRFSGVPDRFSGSGSGTDFTLKISRVEAEDLGVYFCSQSTHVPLTFGAGTKLELK
notes: Chimeric human IgG1
As to B8, in assay [1], the Kd came out at 19.9 nM, the koff was determined as 0.00258 s⁻¹ and the kon stood at 130000 M⁻¹ s⁻¹. In the assay with human GPC3 on cells, this molecule gave a concentration for a half-maximal effect (EC50) of 3.68 nM.

B9: 28G4 (antibody, V domains shown)
VH: EVQLQQSGAELVRPGASVKLSCKALGYTFADYEIHWVKQTPVHGLEWIGAIHPGSGGTAYNQTFKGKATLTADKSSTTAYMELSSLTSEDSAVYYCTRYYSFAYWGQGTLVTVSA
VL: DVLMTQTPLSLPVSLGDQASISCRSSQSIVHSNGNTYLQWYLQKPGQSPKLLIYKVSNRFSGVPDRFSGSGSGTDFTLKISRVEAEDLGVYYCFQGSHVPYTFGGGTKLEIK
notes: Chimeric human IgG1
For B9, in assay [1], the Kd was found to be 11.3 nM, the koff worked out at 0.00112 s⁻¹ and the kon stood at 98900 M⁻¹ s⁻¹. Also, the EC50 with human GPC3 on cells was determined as 2.87 nM.

B10: 41H1 (antibody, V domains shown)
VH: QVQLQQSGAELVRPGASVKLSCKALGYTFADYEIHWVKQTPVHGLEWIGAIHPGSGGTAYNQTFEGKATLTADKSSTTAYMELSSLTSEDSAVYYCTRYYSFAYWGQGTLVTVSA
VL: DVVMTQTPLSLPVSLGDQASISCRSSQSLVHSNGNTYLHWYLQKPGQSPKLLIYKVSNRFSGVPDRFSGSGSGTDFTLRISRVEAEDLGVYFCSQSTRVPLTFGAGTKLELK
notes: Chimeric human IgG1
As for B10, in assay [1], the Kd worked out at 25 nM, the koff amounted to 0.00264 s⁻¹ and the kon was found to be 106000 M⁻¹ s⁻¹. In addition, the EC50 with human GPC3 on cells came out at 1.07 nM.

B11: 39G4 (antibody, V domains shown)
VH: QVQLQQSGAELVRPGASVKLSCKALGYTFADYEIHWVKQTPVHGLEWIGAIHPGSGGTAYNQTFEGKATLTADKSSTTAYMELSSLTSEDSAVYYCTRYYSFAYWGQGTLVTVSA
VL: DVVVTQTPLSLPVSLGDQASISCRSSQSLVHSNGNTYLHWYLQKPGQSPKLLIYKVSNRFSGVPDRFSGSGSGTDFTLKISRVEAEDLGVYFCSQSTHVPTFGGGTKLEIK
notes: Chimeric human IgG1
As to B11, in assay [1], the Kd worked out at 26.2 nM, the koff was found to be 0.00208 s⁻¹ and the kon turned out to be 79500 M⁻¹ s⁻¹. A half-maximal effect in the assay with human GPC3 on cells (EC50) was put at 2.79 nM.

B12: 30B7 (antibody, V domains shown)
VH: QVQLQQSGAELVRPGASVRLSCKALGYTFTDYEMHWVKQTPVHGLEWIGAIHPGSGGTAYNQKFKGKATLTADKSSSTAYMELSSLTSEDSAVYYCTRYYSFAYWGQGTLVTVSA
VL: DVLMTQTPLSLPVSLGDQASISCRSSQSLVHSNGNTYLHWYLQKPGQSPKLLIYKVSNRFSGVPDRFSGSGSGTDFTLKISRVEAEDLGVYFCSQSTHVPLTFGAGTKLEIK
notes: Chimeric human IgG1
Regarding B12, in assay [1], the dissociation constant Kd was 10.9 nM, the koff came out at 0.000783 s⁻¹ and the kon was 71700 M⁻¹ s⁻¹. In the assay with human GPC3 on cells, this molecule registered an EC50 of 2.78 nM.

B13: 34H1 (antibody, V domains shown)
VH: QVQLQQSGAELVRPGASVKLSCKALGYTFADYEIHWVKQTPVHGLEWIGAIHPGSGGTAYNQTFEGKATLTADKSSTTAYMELSSLTSEDSAVYYCTRYYSFAYWGQGTLVTVSA
VL: DVVMTQTPLSLPVSLGDQASISCRSSQSLVHSNGNTYLHWYLQKPGQSPKLLIYKVSNRFSGVPDRFSGSGSGTDFTLKISRVEAEDLGVYFCSQSIHVPLTFGAGTKLELK
notes: Chimeric human IgG1
For the molecule B13, in assay [1], the Kd came out at 12.9 nM, the koff came to 0.00221 s⁻¹ and the kon is 171000 M⁻¹ s⁻¹. Also, the EC50 with human GPC3 on cells amounted to 2.1 nM.

B14: 29A10 (antibody, V domains shown)
VH: EVQLQQSGAELVRPGASVKLSCKALGYTFADYEIHWVKQTPVHGLEWIGAIHPGSGGTAYNQTFKGKATLTADKSSTTAYMELSSLTSEDSAVYYCTRYYSFAYWGQGTLVTVSA
VL: DVVMTQTPLSLPVSLGDQASISCRSSQSLVHSNGNTYLHWYLQKPGQSPKLLIYKVSNRFSGVPDRFSGSGSGTDFTLKISRVEAEDLGVYFCSQSTHVPLTFGAGTKLEIK
notes: Chimeric human IgG1
Consider B14, for which, in assay [1], the Kd is 19.8 nM, the koff was 0.00281 s⁻¹ and the kon amounted to 142000 M⁻¹ s⁻¹. In the assay with human GPC3 on cells, this molecule returned a 50% effective concentration (EC50) of 3.39 nM.
